In data set [1] the test system is HeLa Kyoto. The data set is described as follows: solubility in G1/S (NP-40 vs SDS abundance) (log2 ratio); higher = more soluble. The following applies: cell cycle stage: G1/S.
Data set [2] relates to HeLa Kyoto. Description: melting temperature (median over replicates), in situ; higher = more thermally stable.
Data set [3] deals with HeLa Kyoto. Description: thermal stability score vs G1/S (z-score of summed log2 fold changes over temperatures); higher = more thermally stable than in G1/S.
Data set [4] deals with HeLa Kyoto. The data set is described as follows: solubility change mitosis vs G1/S (difference of NP-40 vs SDS log2 ratios) (log2 ratio difference); higher = more soluble in mitosis.
The mark [5] stands for this setting: cell cycle stage: early G1 (4.5 h after nocodazole release).

The text below walks through data of the supplement of paper PMC5998384.
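Wherever melting temperature (median over replicates), in situ is given: HeLa Kyoto cells synchronized by double thymidine or nocodazole block, proteins quantified by TMT10plex mass spectrometry, three independent biological replicates.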
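Wherever solubility change mitosis vs G1/S (difference of NP-40 vs SDS log2 ratios) is given: synchronized HeLa Kyoto cells (double thymidine block for G1/S, nocodazole release for mitosis), protein amounts in NP-40 versus SDS lysates quantified by mass spectrometry, three biological replicates.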
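Wherever solubility in G1/S (NP-40 vs SDS abundance) is given: HeLa Kyoto cells arrested at G1/S by double thymidine block, proteins quantified by TMT10plex mass spectrometry in mild NP-40 versus SDS extracts, three biological replicates.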
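Wherever thermal stability score vs G1/S (z-score of summed log2 fold changes over temperatures) is given: synchronized HeLa Kyoto cells, proteins quantified by TMT10plex mass spectrometry, three biological replicates, mitosis taken 0.5 h after nocodazole release, G1/S directly after double thymidine block.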

Take “MADMQNLVERLERAVGRLEAVSHTSDMHRGYADSPSKAGAAPYVQAFDSLLAGPVAEYLKISKEIGGDVQKHAEMVHTGLKLERALLVTASQCQQPAENKLSDLLAPISEQIKEVITFREKNRGSKLFNHLSAVSESIQALGWVAMAPKPGPYVKEMNDAAMFYTNRVLKEYKDVDKKHVDWVKAYLSIWTELQAYIKEFHTTGLAWSKTGPVAKELSGLPSGPSAGSCPPPPPPCPPPPPVSTISCSYESASRSSLFAQINQGESITHALKHVSDDMKTHKNPALKAQSGPVRSGPKPFSAPKPQTSPSPKRATKKEPAVLELEGKKWRVENQENVSNLVIEDTELKQVAYIYKCVNTTLQIKGKINSITVDNCKKLGLVFDDVVGIVEIINSKDVKVQVMGKVPTISINKTDGCHAYLSKNSLDCEIVSAKSSEMNVLIPTEGGDFNEFPVPEQFKTLWNGQKLVTTVTEIAG [CAP1]”: in data set [1], the “solubility in G1/S (log2)” value was determined as 0.178. Besides, the melting temperature in data set [2] (cell cycle stage: G1/S) came to 53.6 °C; in data set [2] (cell cycle stage: mitosis) it was 53.2 °C. For the same sequence, the thermal stability score is -0.637 in data set [3] (setting [5]) and -0.459 in data set [3] (cell cycle stage: mitosis). The “solubility change mitosis (log2)” value in data set [4] worked out at 0.000121.
Consider “MADQLYLENIDEFVTDQNKIVTYKWLSYTLGVHVNQAKQMLYDYVERKRKENSGAQLHVTYLVSGSLIQNGHSCHKVAVVREDKLEAVKSKLAVTASIHVYSIQKAMLKDSGPLFNTDYDILKSNLQNCSKFSAIQCAAAVPRAPAESSSSSKKFEQSHLHMSSETQANNELTTNGHGPPASKQVSQQPKGIMGMFASKAAAKTQETNKETKTEAKEVTNASAAGNKAPGKGNMMSNFFGKAAMNKFKVNLDSEQAVKEEKIVEQPTVSVTEPKLATPAGLKKSSKKAEPVKVLQKEKKRGKRVALSDDETKETENMRKKRRRIKLPESDSSEDEVFPDSPGAYEAESPSPPPPPSPPLEPVPKTEPEPPSVKSSSGENKRKRKRVLKSKTYLDGEGCIVTEKVYESESCTDSEEELNMKTSSVHRPPAMTVKKEPREERKGPKKGTAALGKANRQVSITGFFQRK [POLD3]”, for which the “solubility in G1/S (log2)” value in data set [1] amounted to 0.0553. The melting temperature in data set [2] (cell cycle stage: G1/S) was found to be 47 °C; in data set [2] (cell cycle stage: mitosis), 48.1 °C. The results for the thermal stability score in data set [3] (setting [5]) and in data set [3] (cell cycle stage: mitosis) were 0.776 and 2.8, respectively. Moreover, the “solubility change mitosis (log2)” value in data set [4] is -0.0027.
“MADSRDPASDQMQHWKEQRAAQKADVLTTGAGNPVGDKLNVITVGPRGPLLVQDVVFTDEMAHFDRERIPERVVHAKGAGAFGYFEVTHDITKYSKAKVFEHIGKKTPIAVRFSTVAGESGSADTVRDPRGFAVKFYTEDGNWDLVGNNTPIFFIRDPILFPSFIHSQKRNPQTHLKDPDMVWDFWSLRPESLHQVSFLFSDRGIPDGHRHMNGYGSHTFKLVNANGEAVYCKFHYKTDQGIKNLSVEDAARLSQEDPDYGIRDLFNAIATGKYPSWTFYIQVMTFNQAETFPFNPFDLTKVWPHKDYPLIPVGKLVLNRNPVNYFAEVEQIAFDPSNMPPGIEASPDKMLQGRLFAYPDTHRHRLGPNYLHIPVNCPYRARVANYQRDGPMCMQDNQGGAPNYYPNSFGAPEQQPSALEHSIQYSGEVRRFNTANDDNVTQVRAFYVNVLNEEQRKRLCENIAGHLKDAQIFIQKKAVKNFTEVHPDYGSHIQALLDKYNAEKPKNAIHTFVQSGSHLAAREKANL [CAT]”: the “solubility in G1/S (log2)” value in data set [1] worked out at 0.174. The results for the melting temperature in data set [2] (cell cycle stage: G1/S) and in data set [2] (cell cycle stage: mitosis) were 58.2 °C and 57.9 °C, respectively. For the same sequence, the results for the thermal stability score in data set [3] (setting [5]) and in data set [3] (cell cycle stage: mitosis) were -2.19 and -2.27, respectively. For the same sequence, in data set [4], the “solubility change mitosis (log2)” value was -0.000938.
On to “MADSSGQQGKGRRVQPQWSPPAGTQPCRLHLYNSLTRNKEVFIPQDGKKVTWYCCGPTVYDASHMGHARSYISFDILRRVLKDYFKFDVFYCMNITDIDDKIIKRARQNHLFEQYREKRPEAAQLLEDVQAALKPFSVKLNETTDPDKKQMLERIQHAVQLATEPLEKAVQSRLTGEEVNSCVEVLLEEAKDLLSDWLDSTLGCDVTDNSIFSKLPKFWEGDFHRDMEALNVLPPDVLTRVSEYVPEIVNFVQKIVDNGYGYVSNGSVYFDTAKFASSEKHSYGKLVPEAVGDQKALQEGEGDLSISADRLSEKRSPNDFALWKASKPGEPSWPCPWGKGRPGWHIECSAMAGTLLGASMDIHGGGFDLRFPHHDNELAQSEAYFENDCWVRYFLHTGHLTIAGCKMSKSLKNFITIKDALKKHSARQLRLAFLMHSWKDTLDYSSNTMESALQYEKFLNEFFLNVKDILRAPVDITGQFEKWGEEEAELNKNFYDKKTAIHKALCDNVDTRTVMEEMRALVSQCNLYMAARKAVRKRPNQALLENIALYLTHMLKIFGAVEEDSSLGFPVGGPGTSLSLEATVMPYLQVLSEFREGVRKIAREQKVPEILQLSDALRDNILPELGVRFEDHEGLPTVVKLVDRNTLLKEREEKRRVEEEKRKKKEEAARRKQEQEAAKLAKMKIPPSEMFLSETDKYSKFDENGLPTHDMEGKELSKGQAKKLKKLFEAQEKLYKEYLQMAQNGSFQ [CARS]”, for which, in data set [1], the “solubility in G1/S (log2)” value is 0.0728. Besides, the melting temperature stood at 52.9 °C in data set [2] (cell cycle stage: G1/S) and 52.6 °C in data set [2] (cell cycle stage: mitosis). The thermal stability score in data set [3] (setting [5]) is 0.401; in data set [3] (cell cycle stage: mitosis) it was -0.0333. Besides, the “solubility change mitosis (log2)” value in data set [4] is -0.103.
